Measurements taken from patent US20240336672A1.

B1: CT-P59 (parental IgG1 version) (antibody, V domains shown)
VH: QITLKESGPTLVKPTQTLTLTCSFSGFSLSTSGVGVGWIRQPPGKALEWLALIDWDDNKYHTTSLKTRLTISKDTSKNQVVLTMTNMDPVDTATYYCARIPGFLRYRNRYYYYGMDVWGQGTTVTVSS
VL: ELVLTQPPSVSAAPGQKVTISCSGSSSNIGNNYVSWYQQLPGTAPKLLIYDNNKRPSGIPDRFSGSKSGTSATLGITGLQTGDEADYYCGTWDSSLSAGVFGGGTELTVL
B2: REG (antibody)
heavy chain variable region (VH): B1 VH
light chain variable region (VL): B1 VL

Tests used:
Conditions in all cases: remark: other sources report otherwise
[1] = target: T1, SARS-CoV-2 kappa variant B.1.617.1/3 RBD domain (SARS-CoV-2); test: RBD/ACE2 blocking ELISA
[2] = target: SARS-CoV-2 RBD (P.1) domain (SARS-CoV-2); test: RBD/ACE2 blocking ELISA
[3] = target: SARS-CoV-2 delta plus variant RBD (SARS-CoV-2); test: RBD/ACE2 blocking ELISA
[4] = target: T2, SARS-CoV-2 delta variant B.1.617.2/3 RBD domain (SARS-CoV-2); test: RBD/ACE2 blocking ELISA
[5] = target: SARS-CoV-2 RBD (B.1.351) domain (SARS-CoV-2); test: RBD/ACE2 blocking ELISA
[6] = target: SARS-CoV-2 RBD (B.1.1.7) domain (SARS-CoV-2); test: RBD/ACE2 blocking ELISA
[7] = target: T1, SARS-CoV-2 kappa variant B.1.617.1/3 …; test: ELISA; design: unit not given beside the values
[8] = target: SARS-CoV-2 RBD (P.1) domain (SARS-CoV-2); test: ELISA; design: unit not given beside the values
[9] = target: SARS-CoV-2 delta plus variant RBD (SARS-CoV-2); test: ELISA; design: unit not given beside the values
[10] = target: T2, SARS-CoV-2 delta variant B.1.617.2/3 …; test: ELISA; design: unit not given beside the values
[11] = target: SARS-CoV-2 RBD (B.1.351) domain (SARS-CoV-2); test: ELISA; design: unit not given beside the values
[12] = target: SARS-CoV-2 RBD (B.1.1.7) domain (SARS-CoV-2); test: ELISA; design: unit not given beside the values
[13] = target: T1, SARS-CoV-2 kappa variant B.1.617.1/3 …; test: ELISA
[14] = target: SARS-CoV-2 RBD (P.1) domain (SARS-CoV-2); test: ELISA
[15] = target: T2, SARS-CoV-2 delta variant B.1.617.2/3 …; test: ELISA
[16] = target: SARS-CoV-2 RBD (B.1.1.7) domain (SARS-CoV-2); test: ELISA

Binder	% binding inhibition [1]	% binding inhibition [2]	% binding inhibition [3]	% binding inhibition [4]	% binding inhibition [5]	% binding inhibition [6]	AUC [7]	AUC [8]	AUC [9]	AUC [10]	AUC [11]	AUC [12]	OD405nm [13]	OD405nm [14]	OD405nm [15]	OD405nm [16]
B1	94%	19%	91%	91%	49%	86%	3	4	3	3	3	3				
B2													3.5	3.6	3.4	3.2
